According to the Immune Epitope Database (IEDB):

Columns and labels:
[1] = biological target: HLA-A*01:01; assay: IEDB peptide-MHC binding, purified MHC/direct/fluorescence; filed as Kd, often an IC50 or EC50 that approximates it; ≥ and ≤ were set here for values at or beyond the usual limits of such assays
[2] = biological target: HLA-A*02:01; assay: as above
[3] = biological target: HLA-A*03:01; assay: as above
[4] = biological target: HLA-A*11:01; assay: as above
[5] = biological target: HLA-A*24:03; assay: as above
[6] = biological target: HLA-A*26:01; assay: as above
[7] = biological target: HLA-A*31:01; assay: as above
[8] = biological target: HLA-A*69:01; assay: as above
[9] = biological target: HLA-B*07:02; assay: as above
[10] = biological target: HLA-B*08:01; assay: as above
[11] = biological target: HLA-B*15:01; assay: as above
[12] = biological target: HLA-B*27:05; assay: as above
[13] = biological target: HLA-B*35:01; assay: as above
[14] = biological target: HLA-B*40:01; assay: as above
[15] = biological target: HLA-B*58:01; assay: as above
[16] = biological target: HLA-A*30:01; assay: as above; settings: source organism: Yersinia enterocolitica
[17] = biological target: HLA-B*44:02; assay: as above
[18] = biological target: HLA-C*14:02; assay: as above
[19] = biological target: HLA-B*35:01; assay: IEDB peptide-MHC binding, purified MHC/competitive/fluorescence; filed as Kd, often an IC50 or EC50 that approximates it; ≥ and ≤ were set here for values at or beyond the usual limits of such assays; settings: source organism: Francisella tularensis subsp. tularensis FSC198
[20] = biological target: HLA-A*24:02; assay: IEDB peptide-MHC binding, purified MHC/direct/fluorescence; filed as Kd, often an IC50 or EC50 that approximates it; ≥ and ≤ were set here for values at or beyond the usual limits of such assays; settings: source organism: Influenza A virus (A/tiger/Thailand/CU-T4/04(H5N1))
[21] = biological target: HLA-B*08:02; assay: as above; settings: source organism: Influenza A virus(A/swine/Shandong/fZC/2003(H9N2))
[22] = biological target: HLA-B*46:01; assay: IEDB peptide-MHC binding, purified MHC/competitive/fluorescence; filed as Kd, often an IC50 or EC50 that approximates it; ≥ and ≤ were set here for values at or beyond the usual limits of such assays
[23] = biological target: HLA-B*07:02; assay: IEDB peptide-MHC binding, purified MHC/competitive/fluorescence; ≥ and ≤ were set here for values at or beyond the usual limits of such assays; settings: source organism: Zaire ebolavirus
[24] = biological target: HLA-A*02:03; assay: IEDB peptide-MHC binding, purified MHC/competitive/fluorescence; filed as Kd, often an IC50 or EC50 that approximates it; ≥ and ≤ were set here for values at or beyond the usual limits of such assays; settings: source organism: Human immunodeficiency virus 1
[25] = biological target: HLA-A*02:06; assay: as above; settings: source organism: Human immunodeficiency virus 1
[26] = biological target: HLA-A*30:01; assay: as above; settings: source organism: Human immunodeficiency virus 1
[27] = biological target: HLA-B*15:01; assay: as above
[28] = biological target: HLA-B*39:01; assay: as above
[29] = biological target: HLA-A*02:01; assay: as above; settings: source organism: Streptococcus pneumoniae TIGR4
[30] = biological target: HLA-A*03:01; assay: as above; settings: source organism: Streptococcus pneumoniae TIGR4
[31] = biological target: HLA-A*23:01; assay: as above; settings: source organism: Streptococcus pneumoniae TIGR4
[32] = biological target: HLA-A*24:03; assay: as above; settings: source organism: Streptococcus pneumoniae TIGR4
[33] = biological target: HLA-A*26:01; assay: as above; settings: source organism: Streptococcus pneumoniae TIGR4
[34] = biological target: HLA-A*29:02; assay: as above; settings: source organism: Streptococcus pneumoniae TIGR4
[35] = biological target: HLA-A*69:01; assay: as above; settings: source organism: Streptococcus pneumoniae TIGR4
[36] = biological target: HLA-B*15:17; assay: as above; settings: source organism: Streptococcus pneumoniae TIGR4
[37] = biological target: HLA-B*18:01; assay: as above; settings: source organism: Streptococcus pneumoniae TIGR4
[38] = biological target: HLA-B*27:03; assay: as above; settings: source organism: Streptococcus pneumoniae TIGR4
[39] = biological target: HLA-B*51:01; assay: as above; settings: source organism: Streptococcus pneumoniae TIGR4
[40] = biological target: HLA-B*57:01; assay: as above; settings: source organism: Streptococcus pneumoniae TIGR4
[41] = biological target: HLA-A*01:01; assay: as above
[42] = source organism: Haemophilus influenzae
[43] = source organism: Yersinia enterocolitica
[44] = source organism: Francisella tularensis subsp. holarctica LVS
[45] = source organism: Influenza A virus (A/tiger/Thailand/CU-T4/04(H5N1))
[46] = source organism: Influenza A virus (A/Puerto Rico/8/34/Mount Sinai(H1N1))
[47] = source organism: Human immunodeficiency virus 1
[48] = source organism: Vibrio cholerae
[49] = source organism: Vibrio parahaemolyticus
[50] = source organism: Streptococcus pneumoniae TIGR4
[51] = source organism: Escherichia coli

LAEQFSGEY
Kd [1, 42]: 0.247 µM
Kd [2, 42]: ≥ 20 µM
Kd [3, 42]: ≥ 20 µM
Kd [4, 42]: ≥ 20 µM
Kd [5, 42]: ≥ 20 µM
Kd [6, 42]: ≥ 20 µM
Kd [7, 42]: ≥ 20 µM
Kd [8, 42]: ≥ 20 µM
Kd [9, 42]: ≥ 20 µM
Kd [10, 42]: ≥ 20 µM
Kd [11, 42]: 0.374 µM
Kd [12, 42]: ≥ 20 µM
Kd [13, 42]: 0.0167 µM
Kd [14, 42]: ≥ 20 µM
Kd [15, 42]: ≥ 20 µM

YIFRNTINM
Kd [1, 43]: ≥ 20 µM
Kd [2, 43]: 0.222 µM
Kd [3, 43]: ≥ 20 µM
Kd [4, 43]: 7.78 µM
Kd [6, 43]: 0.729 µM
Kd [16]: 1.79 µM
Kd [7, 43]: ≥ 20 µM
Kd [8, 43]: 0.2 µM
Kd [9, 43]: 7.86 µM
Kd [10, 43]: ≥ 20 µM
Kd [11, 43]: 0.298 µM
Kd [12, 43]: ≥ 20 µM
Kd [13, 43]: 0.0827 µM
Kd [14, 43]: ≥ 20 µM
Kd [17, 43]: ≥ 20 µM
Kd [15, 43]: 0.508 µM
Kd [18, 43]: 0.12 µM

AIYKNTIAY
Kd [3, 44]: 0.0069 µM
Kd [4, 44]: 0.0239 µM
Kd ([18]; source organism: Francisella tularensis subsp. tularensis FSC198): 0.118 µM
Kd [19]: 0.0986 µM

FVRTLFQQM
Kd [1, 45]: ≥ 20 µM
Kd [2, 45]: ≥ 20 µM
Kd [3, 45]: ≥ 20 µM
Kd [4, 45]: ≥ 20 µM
Kd [20]: ≥ 20 µM
Kd [8, 45]: ≥ 20 µM
Kd [9, 46]: 0.5 µM
Kd [10, 46]: 0.188 µM
Kd [21]: ≥ 20 µM
Kd [11, 46]: 5.96 µM
Kd [12, 45]: ≥ 20 µM
Kd ([13]; source organism: Influenza A virus(A/swine/Shandong/fZC/2003(H9N2))): 0.297 µM
Kd [14, 45]: ≥ 20 µM
Kd [15, 45]: ≥ 20 µM
Kd ([22]; source organism: Influenza A virus H3N2): ≥ 20 µM

SPQSLTTKP
IC50 [23]: ≥ 188 µM

EKLKSLFNTV
Kd [24]: ≥ 20 µM
Kd [25]: 0.343 µM
Kd [26]: 1.14 µM
Kd [27, 47]: ≥ 20 µM
Kd [28, 47]: ≥ 20 µM

AYYWNQNGF
Kd [1, 48]: ≥ 20 µM
Kd [2, 48]: ≥ 20 µM
Kd [3, 48]: ≥ 20 µM
Kd [4, 49]: ≥ 20 µM
Kd [5, 49]: 0.00223 µM
Kd [6, 48]: ≥ 20 µM
Kd [8, 48]: ≥ 20 µM
Kd [9, 48]: ≥ 20 µM
Kd [10, 48]: ≥ 20 µM
Kd [12, 48]: ≥ 20 µM
Kd [14, 48]: ≥ 20 µM
Kd [17, 48]: ≥ 20 µM
Kd [15, 48]: ≥ 20 µM
Kd ([18]; source organism: Vibrio cholerae 2740-80): ≤ 0.001 µM

CLSDEINHV
Kd [29]: 0.0109 µM
Kd [30]: ≥ 20 µM
Kd [31]: ≥ 20 µM
Kd [32]: ≥ 20 µM
Kd [33]: ≥ 20 µM
Kd [34]: ≥ 20 µM
Kd [35]: ≥ 20 µM
Kd [27, 50]: ≥ 20 µM
Kd [36]: ≥ 20 µM
Kd [37]: ≥ 20 µM
Kd [38]: ≥ 20 µM
Kd [28, 50]: ≥ 20 µM
Kd [22, 50]: ≥ 20 µM
Kd [39]: ≥ 20 µM
Kd [40]: ≥ 20 µM

LSTASSWSY
Kd ([41]; source organism: Influenza A virus (A/swine/Ohio/24366/2007(H1N1))): 0.261 µM

KSVFNSLY
Kd ([41]; source organism: Influenza A virus (A/X-31(H3N2))): 1.47 µM

SHDTIGPYY
Kd [1, 51]: ≥ 20 µM
Kd [2, 51]: ≥ 20 µM
Kd [3, 51]: ≥ 20 µM
Kd [4, 51]: ≥ 20 µM
Kd [6, 51]: ≥ 20 µM
Kd [7, 51]: ≥ 20 µM
Kd [8, 51]: ≥ 20 µM
Kd [9, 51]: ≥ 20 µM
Kd [10, 51]: ≥ 20 µM
Kd [11, 51]: ≥ 20 µM
Kd [12, 51]: ≥ 20 µM
Kd [13, 51]: 4.76 µM
Kd [14, 51]: 2.92 µM
Kd [15, 51]: ≥ 20 µM
